# Assay results published in doi:10.1101/2021.09.13.460076.
# Molecular target: ADDomer-SpyTag (ADD-ST) particle (human adenovirus type 3)
# Test: covalent adduct on SDS-PAGE
substance,measurement,value
SpyCatcher (SC) (designed binder),stoichiometry N (copies per particle),60
